Experimental data as given in the RNAGym collection of RNA variant scans (doi:10.7554/elife.90254).

B1: LINE1-mini (parent)
chain: GGCAGAGCUCAACACAGCGUGGCAAAGUGGCUGUGGCUAGACUGCC

Variants of: B1
Test: self-cleavage, relative activity (ratio to wild type); higher = more cleavage; in vitro, sequencing; the parent is a self-cleaving ribozyme
With GGCAGAUCUCAACACAGCGUGGCAAAGUGGCUGCGGCUAGACUGCC [G7U U34C] the self-cleavage was 0.09. GGCAGAGCUCAACACAGCGUGGCAACGUGGCUGUGGCUGGACUGCC [A26C A39G] showed a self-cleavage of 0.05. For GGAAGAGCUCAACACAGUGUGGCAAAGUGGCUGUGGCUAGACUGCC [C3A C18U], the self-cleavage was 0.49. CGCAGAGCUCAACACAGCGUGGCAAAGUGGCUGCGGCUAGACUGCC [G1C U34C] showed a self-cleavage of 0.03. GGCAGAGCACAACACAGCGUGGCUAAGUGGCUGUGGCUAGACUGCC [U9A A24U] gave a self-cleavage of 0.33. GGCAGAGCUCAACACAGCGUGGCAGAGUGGCUGUGCCUAGACUGCC [A25G G36C] showed a self-cleavage of 0.04. Variant GGAGGAGCUCAACACAGCGUGGCAAAGUGGCUGUGGCUAGACUGCC [C3A A4G] has a self-cleavage of 0.17. With GGCAGAGCUCAACACAGCGUGGCAAAGUGGCUGGGGCUAGACAGCC [U34G U43A] the self-cleavage was 0.21. GGCAGAGCUCAACACAGCGUGGCAAAGUCGCUGGGGCUAGACUGCC [G29C U34G] gave a self-cleavage of 0.2. With GGCAGAGCUCAACACAACGUGGCAACGUGGCUGUGGCUAGACUGCC [G17A A26C] the self-cleavage was 0.34. With GGCAGAGGUCAACACAGCGUGGCAAAGGGGCUGUGGCUAGACUGCC [C8G U28G] the self-cleavage was 0.06. For GGCAGAGCUCAACACAGCGUGGCAAAGUGGCCGUGGCUAGACUGCU [U32C C46U], the self-cleavage was 0.2. Work on GGCAGAGCUCAACACAGCGUGGCAAAGUGCCUUUGGCUAGACUGCC [G30C G33U] yielded a self-cleavage of 0.07. With AGCAGAGCUCGACACAGCGUGGCAAAGUGGCUGUGGCUAGACUGCC [G1A A11G] the self-cleavage was 0.06. In the case of GGAAGAGCUUAACACAGCGUGGCAAAGUGGCUGUGGCUAGACUGCC [C3A C10U], the self-cleavage is reported as 0.19. In the case of GACAGAGCUCAACACAGCGUGGCAAAGUGGCUGUGGGUAGACUGCC [G2A C37G], the self-cleavage is reported as 0.13. Variant GGCAUAGCUCAACACAGCGUGGCAAUGUGGCUGUGGCUAGACUGCC [G5U A26U] has a self-cleavage of 0.09. GGCAGAGCUCAAUACAGCGUGGCAUAGUGGCUGUGGCUAGACUGCC [C13U A25U] gave a self-cleavage of 0.29. For GGCAAGGCUCAACACAGCGUGGCAAAGUGGCUGUGGCUAGACUGCC [G5A A6G], the self-cleavage was 0.13. For GGCAGAGCUCAACAUAGCGUUGCAAAGUGGCUGUGGCUAGACUGCC [C15U G21U], the self-cleavage was 1.46. With GGCAGAGCUCAACACAGGGUGGCAAAGUGGCUGUGGCUAGACUUCC [C18G G44U] the self-cleavage was 0.05. Variant GGCAGAACUCAACACAGCGUGGCAAAGUGGCUGUGGCUAGACUGCG [G7A C46G] has a self-cleavage of 0.36. GGCAGAGCUCAUCACAGCGUGGCAAAGUGGCUCUGGCUAGACUGCC [A12U G33C] showed a self-cleavage of 0.03. Work on AGCAGUGCUCAACACAGCGUGGCAAAGUGGCUGUGGCUAGACUGCC [G1A A6U] yielded a self-cleavage of 1.55. GGCAAAGCUCAACGCAGCGUGGCAAAGUGGCUGUGGCUAGACUGCC [G5A A14G] gave a self-cleavage of 0.13. For GGCAGAGCUCAACACCGCAUGGCAAAGUGGCUGUGGCUAGACUGCC [A16C G19A], the self-cleavage was 0.18. GGCAGAGCUCAACACAGCGUGGCAAAGUGGCUGUGGCUAGCCUGCU [A41C C46U] gave a self-cleavage of 0.04. GGCAAAGCUCAACACAGCGUGGCAAAGUGGCUGUGGCUAGACUACC [G5A G44A] gave a self-cleavage of 0.1. Work on GGCAGAGCUCAACACGGCGUGGCAAAGUGGCUGUGGCUAGAAUGCC [A16G C42A] yielded a self-cleavage of 0.07. GCCAGAGCUCAACACAGCGUGGCAAAGUGGCUGUCGCUAGACUGCC [G2C G35C] showed a self-cleavage of 0.05. Variant GGCAGAGCUCAACACAGCGUGCCAAAGUGGCUGUGGCUAGACUGCC [G22C] has a self-cleavage of 0.78. Variant GGCAGAGCUCAACACAGCGUGGCAAAGUGGCUGUGGCGAUACUGCC [U38G G40U] has a self-cleavage of 0.05. In the case of GGGAGAGCUCAACCCAGCGUGGCAAAGUGGCUGUGGCUAGACUGCC [C3G A14C], the self-cleavage is reported as 0.06. GGCAGAGGUCAACACAGCGUGGCAAAGUGGCUGUUGCUAGACUGCC [C8G G35U] gave a self-cleavage of 0.2. For GGCAGAGCUCAACAUAGCGUGGCAAAGUGGCUGUGGCUACACUGCC [C15U G40C], the self-cleavage was 0.07. In the case of GUCAGAGCUCACCACAGCGUGGCAAAGUGGCUGUGGCUAGACUGCC [G2U A12C], the self-cleavage is reported as 0.02. Variant GGCAGAGCUCAAUACAGCGUGGCAAAGUGGCUCUGGCUAGACUGCC [C13U G33C] has a self-cleavage of 0.06. With GGCAGAGCUGAACACAGUGUGGCAAAGUGGCUGUGGCUAGACUGCC [C10G C18U] the self-cleavage was 0.09. In the case of GGCAGAGCUCAACACAGCGUGGCAAAGAGGCUGUCGCUAGACUGCC [U28A G35C], the self-cleavage is reported as 0.08. GGCAGAGCUCAACACAGCGUGGCAGAGUGGGUGUGGCUAGACUGCC [A25G C31G] gave a self-cleavage of 0.27. Work on GGCAGAGCUCAACAUAGCGUGGCAAAGUGGCCGUGGCUAGACUGCC [C15U U32C] yielded a self-cleavage of 0.08. Variant GGCAGAGCUCAACACAGCGUUGCAAAAUGGCUGUGGCUAGACUGCC [G21U G27A] has a self-cleavage of 0.45. GGCAGAGCUCAACACAGCGUGGCAAAUUGGCUGUGGCUAGACGGCC [G27U U43G] gave a self-cleavage of 0.11. GGCAGAGCUCAACACAGCAUGGCAAGGUGGCUGUGGCUAGACUGCC [G19A A26G] gave a self-cleavage of 0.98. With GGCAGAUCACAACACAGCGUGGCAAAGUGGCUGUGGCUAGACUGCC [G7U U9A] the self-cleavage was 0.23. GGCAGAGGUCAACACAGCGUGGCAAAGUGGUUGUGGCUAGACUGCC [C8G C31U] gave a self-cleavage of 0.11. Work on GGCAGAGACCAACACAGCGUGGCAAAGUGGCUGUGGCUAGACUGCC [C8A U9C] yielded a self-cleavage of 0.14. Variant GGCAGAGCUCCACACAGCGUGGCAAAGUGGCUGUGGCUAGGCUGCC [A11C A41G] has a self-cleavage of 0.03. GACAGAGCUCAACACAGCGUGGCAAAGGGGCUGUGGCUAGACUGCC [G2A U28G] showed a self-cleavage of 0.48. Variant GGCAGAGCUCAACACAGCGUGGCAAAGUGGCUGAGGCUAAACUGCC [U34A G40A] has a self-cleavage of 0.09. In the case of GGCAGCGCUCAACACAACGUGGCAAAGUGGCUGUGGCUAGACUGCC [A6C G17A], the self-cleavage is reported as 0.17. In the case of GGCUGAGCUCAACACAGCGUGGCACAGUGGCUGUGGCUAGACUGCC [A4U A25C], the self-cleavage is reported as 0.08. With GGCAGAGCUCAACACAGCGUGGCAAAGUGGCUGUGGUUAGACUGCU [C37U C46U] the self-cleavage was 0.06. For GGCAGAACUCAACACAGCGUGGCAAAGUGGCUGUGGUUAGACUGCC [G7A C37U], the self-cleavage was 0.11. GGCAGAGCUCAACACAGUGUGGCAAAGUGGCUGUGGAUAGACUGCC [C18U C37A] showed a self-cleavage of 0.09. Work on GGCAGAGCUCAACACAGCGUGGCAAAUUGGCUGUGGCUGGACUGCC [G27U A39G] yielded a self-cleavage of 0.22.
